Measurements from patent EP4242225A1 (Consejo Superior De Investigaciones Científicas, dated 2023).

Columns and labels:
Assay in all cases: ELISA, biotin-labeled bispecific hcAb on plate-bound RBD-Fc
[1] = target: T1, RBD-Fc, gamma variant (B.1.1.28.1 or P.1) (SARS-CoV-2; human, UniProt P0DTC2 332-534)
T1 construct: range 332-534; also called gamma RBD

[2] = target: T2, RBD-Fc, kappa variant (B.1.617.1) (SARS-CoV-2; human, UniProt P0DTC2 332-534)
T2 construct: range 332-534; also called kappa RBD

[3] = target: T3, RBD-Fc, delta variant (B.1.617.2) (SARS-CoV-2; human, UniProt P0DTC2 332-534)
T3 construct: range 332-534; also called delta RBD

[4] = target: T4, RBD-Fc, beta variant (B.1.351) (SARS-CoV-2; human, UniProt P0DTC2 332-534)
T4 construct: range 332-534; also called beta RBD

Measured: binding result

B1: bispecific hcAb 1.29-1.10 (bispecific antibody)
heavy: QVQLVESGGGSVQAGGSLRLSCAASGYTINTDAVAWFRQAPGKGDERVAVIYTGSGNTNYADSVKGRFTISQDNAKNTVYLQMNSLKPEDTALYYCASGYYGASGYDFNNWGQGTQVTVSSGGGGSGGGGSGGGGSQVQLVESGGGSVQAGGSLRLSCAASGYTYSTCRKGWYRQAPGKERELVASITADGATYYLDSVKGRLTISQDNAKNTVYLQMNSLKPEDTAVYYCAASVKDFTCTFNSWGQGTQVTVSS
binds: all assays above

B2: bispecific hcAb 1.29-1.26 (bispecific antibody)
heavy: QVQLVESGGGSVQAGGSLRLSCAASGYTINTDAVAWFRQAPGKGDERVAVIYTGSGNTNYADSVKGRFTISQDNAKNTVYLQMNSLKPEDTALYYCASGYYGASGYDFNNWGQGTQVTVSSGGGGSGGGGSGGGGSQVQLVESGGGLVQAGGSLRLSCAATGYTWSSVCMGWFRQAPGKEREGVAGIPSGRNRPYYADSVKGRFTISQDNAKNAVFLLMNSLKPEDTAIYYCAPCSAPHDPEYNYWGQGTQVTVSS
binds: all assays above
